Measurements reported in the Immune Epitope Database (IEDB).

Columns and labels:
HLA-B*40:01 [1] = test: IEDB peptide-MHC binding, purified MHC/direct/fluorescence; filed as Kd, often an IC50 or EC50 that approximates it; ≥ and ≤ were set here for values at or beyond the usual limits of such assays; conditions: source organism: Entamoeba histolytica HM-1:IMSS
HLA-A*03:01 = test: as above
HLA-A*02:19 = test: as above; conditions: source organism: Entamoeba histolytica HM-1:IMSS
HLA-A*02:12 = test: as above; conditions: source organism: Entamoeba histolytica HM-1:IMSS
HLA-B*51:01 = test: as above
HLA-A*26:01 = test: as above; conditions: source organism: Entamoeba histolytica HM-1:IMSS
HLA-A*02:11 = test: as above; conditions: source organism: Entamoeba histolytica HM-1:IMSS
HLA-A*29:02 = test: as above
HLA-B*15:01 = test: as above
HLA-B*57:01 = test: as above
HLA-A*02:01 = test: as above
HLA-B*46:01 = test: as above
HLA-A*23:01 = test: as above
HLA-B*27:03 = test: as above
HLA-B*39:01 = test: as above
HLA-B*15:17 = test: as above
HLA-A*24:03 = test: as above
HLA-A*02:06 = test: as above
HLA-A*02:16 = test: as above
HLA-A*01:01 = test: IEDB peptide-MHC binding, purified MHC/competitive/fluorescence; filed as Kd, often an IC50 or EC50 that approximates it; ≥ and ≤ were set here for values at or beyond the usual limits of such assays
HLA-A*11:01 = test: as above
HLA-B*53:01 = test: as above
HLA-B*14:02 = test: as above
HLA-B*07:02 = test: as above
HLA-B*27:05 = test: as above
HLA-A*30:02 = test: as above
HLA-B*58:01 = test: as above
HLA-A*66:01 = test: as above
HLA-B*08:01 = test: as above
HLA-A*30:01 = test: as above
HLA-B*44:02 = test: as above
HLA-A*69:01 = test: IEDB peptide-MHC binding, purified MHC/direct/fluorescence; filed as Kd, often an IC50 or EC50 that approximates it; ≥ and ≤ were set here for values at or beyond the usual limits of such assays; conditions: source organism: Camelpox virus CMS
HLA-A*02:03 = test: as above; conditions: source organism: Variola virus
HLA-B*18:01 = test: as above; conditions: source organism: Burkholderia mallei ATCC 23344
HLA-A*68:02 = test: as above; conditions: source organism: Burkholderia mallei ATCC 23344
HLA-B*40:01 [2] = test: IEDB peptide-MHC binding, purified MHC/competitive/fluorescence; filed as Kd, often an IC50 or EC50 that approximates it; ≥ and ≤ were set here for values at or beyond the usual limits of such assays; conditions: source organism: Burkholderia mallei SAVP1
[3] = source organism: Entamoeba histolytica HM-1:IMSS
[4] = source organism: Burkholderia mallei ATCC 23344
[5] = source organism: Burkholderia mallei SAVP1

Sequence: IESNPLFPV
- Kd (HLA-B*40:01 [1]): 0.051 µM
- Kd (HLA-A*03:01; [3]): ≥ 20 µM
- Kd (HLA-A*02:19): ≥ 20 µM
- Kd (HLA-A*02:12): 0.922 µM
- Kd (HLA-B*51:01; [3]): ≥ 20 µM
- Kd (HLA-A*26:01): ≥ 20 µM
- Kd (HLA-A*02:11): ≥ 20 µM
- Kd (HLA-A*29:02; [3]): ≥ 20 µM
- Kd (HLA-B*15:01; [3]): ≥ 20 µM
- Kd (HLA-B*57:01; [3]): ≥ 20 µM
- Kd (HLA-A*02:01; [3]): ≥ 20 µM
- Kd (HLA-B*46:01; [3]): ≥ 20 µM
- Kd (HLA-A*23:01; [3]): ≥ 20 µM
- Kd (HLA-B*27:03; [3]): ≥ 20 µM
- Kd (HLA-B*39:01; [3]): ≥ 20 µM
- Kd (HLA-B*15:17; [3]): ≥ 20 µM
- Kd (HLA-A*24:03; [3]): ≥ 20 µM
- Kd (HLA-A*02:06; [3]): 0.034 µM
- Kd (HLA-A*02:16; [3]): ≥ 20 µM
- Kd (HLA-A*01:01; [3]): ≥ 5 µM
- Kd (HLA-A*11:01; [3]): ≥ 5 µM
- Kd (HLA-B*53:01; [3]): ≥ 5 µM
- Kd (HLA-B*14:02; [3]): ≥ 5 µM
- Kd (HLA-B*07:02; [3]): ≥ 5 µM
- Kd (HLA-B*27:05; [3]): ≥ 5 µM
- Kd (HLA-A*30:02; [3]): ≥ 5 µM
- Kd (HLA-B*58:01; [3]): ≥ 5 µM
- Kd (HLA-A*66:01; [3]): ≥ 5 µM
- Kd (HLA-B*08:01; [3]): ≥ 5 µM
- Kd (HLA-A*30:01; [3]): ≥ 5 µM
- Kd (HLA-B*44:02; [3]): ≥ 5 µM

Sequence: DLYDMIHNV
- Kd (HLA-A*69:01): 0.002 µM
- Kd (HLA-A*02:01; source organism: Camelpox virus CMS): 0.0159 µM
- Kd (HLA-A*02:06; source organism: Variola virus): 0.076 µM
- Kd (HLA-A*02:03): 0.006 µM

Sequence: NVMDPMHGA
- Kd (HLA-A*03:01; [4]): ≥ 20 µM
- Kd (HLA-B*18:01): ≥ 20 µM
- Kd (HLA-B*51:01; [4]): ≥ 20 µM
- Kd (HLA-A*68:02): ≤ 0.001 µM
- Kd (HLA-A*29:02; [4]): ≥ 20 µM
- Kd (HLA-B*15:01; [4]): ≥ 20 µM
- Kd (HLA-B*57:01; [4]): ≥ 20 µM
- Kd (HLA-A*02:01; [4]): ≥ 20 µM
- Kd (HLA-B*46:01; [4]): ≥ 20 µM
- Kd (HLA-A*23:01; [4]): ≥ 20 µM
- Kd (HLA-B*27:03; [4]): ≥ 20 µM
- Kd (HLA-B*39:01; [4]): ≥ 20 µM
- Kd (HLA-B*15:17; [4]): ≥ 20 µM
- Kd (HLA-A*24:03; [4]): ≥ 20 µM
- Kd (HLA-A*02:16; [4]): ≥ 20 µM
- Kd (HLA-A*01:01; [5]): ≥ 5 µM
- Kd (HLA-A*11:01; [5]): ≥ 5 µM
- Kd (HLA-B*40:01 [2]): ≥ 5 µM
- Kd (HLA-B*53:01; [5]): ≥ 5 µM
- Kd (HLA-B*14:02; [5]): ≥ 5 µM
- Kd (HLA-B*07:02; [5]): ≥ 5 µM
- Kd (HLA-B*27:05; [5]): ≥ 5 µM
- Kd (HLA-A*30:02; [5]): ≥ 5 µM
- Kd (HLA-B*58:01; [5]): ≥ 5 µM
- Kd (HLA-A*66:01; [5]): ≥ 5 µM
- Kd (HLA-B*08:01; [5]): ≥ 5 µM
- Kd (HLA-A*30:01; [5]): ≥ 5 µM
- Kd (HLA-B*44:02; [5]): ≥ 5 µM
